Reference: patent publication US10294487B2, “Methods and compositions involving ALS variants with native substrate preference” (E I DU PONT DE NEMOURS AND COMPANY, priority 2012, dated 2019)

How the values were obtained:
[1] = system: soybean plants; test: Chlorsulfuron spray test of transgenic T1 soybean plants; type: in vivo; conditions: chlorsulfuron 3 g ai/ha foliar; homozygous T1 plants; 8 days after treatment; 0=no effect, 100=dead plant
Experimental: T1 plants, each having an ALS variant transgene, were grown to the V1 to V2 growth stage and then sprayed with commercial chlorsulfuron formulation at a rate of 3 g ai/ha. All chlorsulfuron treatments were applied foliarly with 0.25% nonionic surfactant in a spray volume of 374 L/ha. Individual plants were compared to untreated plants of similar genetic background, evaluated for herbicide response at eight days after treatment and assigned a visual response score from 0 to 100% injury (0=no effect to 100=dead plant at day 8).
Results in Table 8 list the lowest injury among plants of a single event for constructs containing the listed expression cassette. The amino acid substituted ALS variants provided more protection than the overexpression of the native ALS gene. Seed was produced from a number of T1 plants and advanced to more extensive herbicide testing in the T2 generation.

[2] = system: soybean plants; test: Spray test of homozygous transgenic soybean plants with five ALS-inhibitor herbicides; type: in vivo; conditions: homozygous T1 or T2 plants; for Lowest % injury Chlorimuron: chlorimuron 32 g ai/ha foliar; for Lowest % injury Imazapyr: imazapyr 4 g ai/ha foliar; for Lowest % injury Rimsulfuron: rimsulfuron 8 g ai/ha foliar; for Lowest % injury Thifensulfuron-methyl: thifensulfuron-methyl 16 g ai/ha foliar
Experimental: T1 or T2 soybean plants were evaluated with qPCR to confirm they were homozygous for the transgene. Plants were sprayed at the V1 to V2 growth stage with the commercial formulations of chlorimuron (32 g ai/ha), tribenuron-methyl (16 g ai/ha), thifensulfuron-methyl (16 g ai/ha), rimsulfuron (8 g ai/ha), and imazapyr (4 g ai/ha). Each herbicide was applied foliarly with nonionic surfactant in a spray volume of 374 L/ha. The herbicide response for individual plants was determined by comparing to untreated plants of similar genetic background. Visual injury was scored on a scale of 0 to 100% injury (0=no effect to 100=dead plant). The lowest response for four treated plants of a single event from each construct with the listed expression cassette is reported.

Row | Molecule | Lowest % injury [1] [%] | Lowest % injury Chlorimuron [2] [%] | Lowest % injury Imazapyr [2] [%] | Lowest % injury Rimsulfuron [2] [%] | Lowest % injury Thifensulfuron-methyl [2] [%] | Lowest % injury Tribenuron-methyl ([2]; tribenuron-methyl 16 g ai/ha foliar) [%]
1 | UBQ10: GM-ALS_A103T_P178S_D357E: UBQ10 promoter driving ALS variant SEQ ID NO 8 in transgenic soybean (protein) MAATASRTTRFSSSSSHPTFPKRITRSTLPLSHQTLTKPNHALKIKCSISKPPTAAPFTKEAPTTEPFVSRFASGEPRKGADILVEALERQGVTTVFAYPGGTSMEIHQALTRSAAIRNVLPRHEQGGVFAAEGYARSSGLPGVCIATSGPGATNLVSGLADALMDSVPVVAITGQVSRRMIGTDAFQETPIVEVSRSITKHNYLILDVDDIPRVVAEAFFVATSGRPGPVLIDIPKDVQQQLAVPNWDEPVNLPGYLARLPRPPAEAQLEHIVRLIMEAQKPVLYVGGGSLNSSAELRRFVELTGIPVASTLMGLGTFPIGDEYSLQMLGMHGTVYANYAVDNSDLLLAFGVRFDERVTGKLEAFASRAKIVHIDIDSAEIGKNKQAHVSVCADLKLALKGINMILEEKGVEGKFDLGGWREEINVQKHKFPLGYKTFQDAISPQHAIEVLDELTNGDAIVSTGVGQHQMWAAQFYKYKRPRQWLTSGGLGAMGFGLPAAIGAAVANPGAVVVDIDGDGSFIMNVQELATIRVENLPVKILLLNNQHLGMVVQWEDRFYKSNRAHTYLGDPSSESEIFPNMLKFADACGIPAARVTKKEELRAAIQRMLDTPGPYLLDVIVPHQEHVLPMIPSNGSFKDVITEGDGRTRY | 75 | 5 | 50 | 80 | 0 | 55
2 | SAMS: GM-ALS_A103T_P178S_D357E: SAMS promoter driving ALS variant SEQ ID NO 8 in transgenic soybean (protein) MAATASRTTRFSSSSSHPTFPKRITRSTLPLSHQTLTKPNHALKIKCSISKPPTAAPFTKEAPTTEPFVSRFASGEPRKGADILVEALERQGVTTVFAYPGGTSMEIHQALTRSAAIRNVLPRHEQGGVFAAEGYARSSGLPGVCIATSGPGATNLVSGLADALMDSVPVVAITGQVSRRMIGTDAFQETPIVEVSRSITKHNYLILDVDDIPRVVAEAFFVATSGRPGPVLIDIPKDVQQQLAVPNWDEPVNLPGYLARLPRPPAEAQLEHIVRLIMEAQKPVLYVGGGSLNSSAELRRFVELTGIPVASTLMGLGTFPIGDEYSLQMLGMHGTVYANYAVDNSDLLLAFGVRFDERVTGKLEAFASRAKIVHIDIDSAEIGKNKQAHVSVCADLKLALKGINMILEEKGVEGKFDLGGWREEINVQKHKFPLGYKTFQDAISPQHAIEVLDELTNGDAIVSTGVGQHQMWAAQFYKYKRPRQWLTSGGLGAMGFGLPAAIGAAVANPGAVVVDIDGDGSFIMNVQELATIRVENLPVKILLLNNQHLGMVVQWEDRFYKSNRAHTYLGDPSSESEIFPNMLKFADACGIPAARVTKKEELRAAIQRMLDTPGPYLLDVIVPHQEHVLPMIPSNGSFKDVITEGDGRTRY | 80 | – | – | – | – | –
3 | SAMS: GM-ALS_P178S_D357E: SAMS promoter driving ALS variant SEQ ID NO 17 in transgenic soybean (protein) MAATASRTTRFSSSSSHPTFPKRITRSTLPLSHQTLTKPNHALKIKCSISKPPTAAPFTKEAPTTEPFVSRFASGEPRKGADILVEALERQGVTTVFAYPGGASMEIHQALTRSAAIRNVLPRHEQGGVFAAEGYARSSGLPGVCIATSGPGATNLVSGLADALMDSVPVVAITGQVSRRMIGTDAFQETPIVEVSRSITKHNYLILDVDDIPRVVAEAFFVATSGRPGPVLIDIPKDVQQQLAVPNWDEPVNLPGYLARLPRPPAEAQLEHIVRLIMEAQKPVLYVGGGSLNSSAELRRFVELTGIPVASTLMGLGTFPIGDEYSLQMLGMHGTVYANYAVDNSDLLLAFGVRFDERVTGKLEAFASRAKIVHIDIDSAEIGKNKQAHVSVCADLKLALKGINMILEEKGVEGKFDLGGWREEINVQKHKFPLGYKTFQDAISPQHAIEVLDELTNGDAIVSTGVGQHQMWAAQFYKYKRPRQWLTSGGLGAMGFGLPAAIGAAVANPGAVVVDIDGDGSFIMNVQELATIRVENLPVKILLLNNQHLGMVVQWEDRFYKSNRAHTYLGDPSSESEIFPNMLKFADACGIPAARVTKKEELRAAIQRMLDTPGPYLLDVIVPHQEHVLPMIPSNGSFKDVITEGDGRTRY | 45 | – | – | – | – | –
4 | UBQ10: GM-ALS_W555L: UBQ10 promoter driving ALS variant SEQ ID NO 26 in transgenic soybean (protein) MAATASRTTRFSSSSSHPTFPKRITRSTLPLSHQTLTKPNHALKIKCSISKPPTAAPFTKEAPTTEPFVSRFASGEPRKGADILVEALERQGVTTVFAYPGGASMEIHQALTRSAAIRNVLPRHEQGGVFAAEGYARSSGLPGVCIATSGPGATNLVSGLADALMDSVPVVAITGQVPRRMIGTDAFQETPIVEVSRSITKHNYLILDVDDIPRVVAEAFFVATSGRPGPVLIDIPKDVQQQLAVPNWDEPVNLPGYLARLPRPPAEAQLEHIVRLIMEAQKPVLYVGGGSLNSSAELRRFVELTGIPVASTLMGLGTFPIGDEYSLQMLGMHGTVYANYAVDNSDLLLAFGVRFDDRVTGKLEAFASRAKIVHIDIDSAEIGKNKQAHVSVCADLKLALKGINMILEEKGVEGKFDLGGWREEINVQKHKFPLGYKTFQDAISPQHAIEVLDELTNGDAIVSTGVGQHQMWAAQFYKYKRPRQWLTSGGLGAMGFGLPAAIGAAVANPGAVVVDIDGDGSFIMNVQELATIRVENLPVKILLLNNQHLGMVVQLEDRFYKSNRAHTYLGDPSSESEIFPNMLKFADACGIPAARVTKKEELRAAIQRMLDTPGPYLLDVIVPHQEHVLPMIPSNGSFKDVITEGDGRTRY | 75 | 5 | 10 | 80 | 5 | –
5 | SAMS: GM-ALS W555L: SAMS promoter driving ALS variant SEQ ID NO 26 in transgenic soybean (protein) MAATASRTTRFSSSSSHPTFPKRITRSTLPLSHQTLTKPNHALKIKCSISKPPTAAPFTKEAPTTEPFVSRFASGEPRKGADILVEALERQGVTTVFAYPGGASMEIHQALTRSAAIRNVLPRHEQGGVFAAEGYARSSGLPGVCIATSGPGATNLVSGLADALMDSVPVVAITGQVPRRMIGTDAFQETPIVEVSRSITKHNYLILDVDDIPRVVAEAFFVATSGRPGPVLIDIPKDVQQQLAVPNWDEPVNLPGYLARLPRPPAEAQLEHIVRLIMEAQKPVLYVGGGSLNSSAELRRFVELTGIPVASTLMGLGTFPIGDEYSLQMLGMHGTVYANYAVDNSDLLLAFGVRFDDRVTGKLEAFASRAKIVHIDIDSAEIGKNKQAHVSVCADLKLALKGINMILEEKGVEGKFDLGGWREEINVQKHKFPLGYKTFQDAISPQHAIEVLDELTNGDAIVSTGVGQHQMWAAQFYKYKRPRQWLTSGGLGAMGFGLPAAIGAAVANPGAVVVDIDGDGSFIMNVQELATIRVENLPVKILLLNNQHLGMVVQLEDRFYKSNRAHTYLGDPSSESEIFPNMLKFADACGIPAARVTKKEELRAAIQRMLDTPGPYLLDVIVPHQEHVLPMIPSNGSFKDVITEGDGRTRY | 80 | – | – | – | – | –
6 | SAMS: GM-ALS_A103T_P178S: SAMS promoter driving ALS variant SEQ ID NO 7 in transgenic soybean (protein) MAATASRTTRFSSSSSHPTFPKRITRSTLPLSHQTLTKPNHALKIKCSISKPPTAAPFTKEAPTTEPFVSRFASGEPRKGADILVEALERQGVTTVFAYPGGTSMEIHQALTRSAAIRNVLPRHEQGGVFAAEGYARSSGLPGVCIATSGPGATNLVSGLADALMDSVPVVAITGQVSRRMIGTDAFQETPIVEVSRSITKHNYLILDVDDIPRVVAEAFFVATSGRPGPVLIDIPKDVQQQLAVPNWDEPVNLPGYLARLPRPPAEAQLEHIVRLIMEAQKPVLYVGGGSLNSSAELRRFVELTGIPVASTLMGLGTFPIGDEYSLQMLGMHGTVYANYAVDNSDLLLAFGVRFDDRVTGKLEAFASRAKIVHIDIDSAEIGKNKQAHVSVCADLKLALKGINMILEEKGVEGKFDLGGWREEINVQKHKFPLGYKTFQDAISPQHAIEVLDELTNGDAIVSTGVGQHQMWAAQFYKYKRPRQWLTSGGLGAMGFGLPAAIGAAVANPGAVVVDIDGDGSFIMNVQELATIRVENLPVKILLLNNQHLGMVVQWEDRFYKSNRAHTYLGDPSSESEIFPNMLKFADACGIPAARVTKKEELRAAIQRMLDTPGPYLLDVIVPHQEHVLPMIPSNGSFKDVITEGDGRTRY | 80 | – | – | – | – | –
